Assay: label from the status in PepcDB records

GNLEEMNIDPDNATQTHPKLLLTQICMNAFKRGTDGMYATKKVIQADGESADQYYKWTRGSFGYYDNLRNVQKMGEEAERVNAPVYTALTKFFRAYYFYELTLRFGDIPYSQALKGEKEEIYTPEYDAQEDVFAGILQELREADEILANDASVIDGDIIYNGNSTQWRKLINSFRLKVLMTLSNHTTVGNINIASEFKNIATNSPLMNSLADNGQLVYLDQQGNRYPQFNAQWSGYYMDDTFIQRMRERRDPRLFIFSAQTNKGKTEGKPIDDFSSYEGGDPAAPYSDAIIKVSEGTISPINDRFRTDPIVEPTMLMGYAELQQILAEAVVRGWISGNAQTYYEKGIRASFSFYETHAKDYAGYLNENAVAQYLKEPLVDFTQASGTEEQIERIIMQKYLVTFYQGNWDSFYEQLRTGYPDFRRPAGTEIPKRWMYPQGEYDNNGTNVETAITRQFGAGNDKINQATWWQKKS
protein production: not failed

MKDYQKILVVVDPTTENQVALARAVTLASKSNAHVTVFLSIFDFSYEMTSILSSQEREAMRQGVIDQRVAWIQDLLAPYNHLGLNIDTQVIWHNRPFESIINHAIAGQYDLIVKGTHAHDKLKAVIFTPTDWHLMRKAPVPVLMVKDHDWPETGKILCAVNVATEDTDHQMLNGKIIEHAKDLAGKFAAEVHLVNGFPGTPVNLAIELPDFDAQTYNDTIRLQHEQRVQYLADAYGIDKQNCHVKEGLPEDVIPELAEQLDAELVILGTVGRTGFSAALIGNTAEHVIDSINCDLLAIKPDGYKSPLEEA
protein production: not failed

MKISAIKTWLPLLIIIVLLGLFLGLGLNKYVSFASLRDNHEWLIAITKSHFYLVSFVFIIIYTVAVALSIPGAIFLTLIGGFLFGILWGTFLVVLSATLGATILFFAVQSSLGEVFSKRASGWVKRMRSGFKDNAFSYLLTLRLIPLFPFWVINIVSAVLGVSASTFIIATFIGIIPGSIVYVSVGNGLGELFAASLQPNLGIIFEPKFILPLLGLAALSLIPVFYKKKGKQGTEKMKDKDLFCDLAIIGGGSAGLSIAAGCSQLGLQVVLVEPNKMGGDCLNYGCIPSKTLLNTAKIFYQTKHSTVLGIQAKSVKIDFLQVMQQVHNVIACIAKNDSVERFTSLGVQVIQEAGHFIGPKQFKLKRKIIRAKHFVIATGSSPAIPPIQNLNKVSYLTNETIFNLKVQPEHLIVIGGGPIGCELAQAFAMLGSKVTILEAFTILPKDDADCVAIIRSQLESMQIALYEQIKINKIEESADKTISVHLENQDNPITITGSHLLVSTGRVANVDGLGLEKAGVQYTTRGINTNARLQTTNKKIYAIGDVTGPYQFTHMASYQAGIALRNIAFKWPAKVDYKAVPWVTYTEPELAHVGLLASEALKDPTLKITEFAFAEVDRAQAENKVNGKIKIITGKKAKILGVSIVGAHAGELILPWVIAVKERKSLRTFTDAIAAYPTFSEISKRVAGEYYKPFIFSSKIRTFVRWLNKLG
protein production: failed

MTNQDNNHQLNHRIYHFEKIYKAIKHVIVFIFMIFIAIVAIAVIAMSLYFHHLTKTSDSLSDDALIKKVRQIPGDELLDHNNKNLLYEYNHSQNSLIIGPKTSSPNVIKALTSSEDTLFYKHDGILPKAILRAMIQDIFNTDQSSGGSTITQQLVKNQVLTNEKTYSRKANELRLAIRLEHLLSKDEIIYTYLNIVPFGRDYNGANISGIASASYSLFGIPPKDLSIAQSAYLIGLLQSPYGYTPYEKDGTLKSDKDLKYSIQRQHYVLKRMLIEDQITEKEYNDALKYDIKSHLLNRKKR
protein production: failed

MSVKKDWIAPLALLFVSFIWGATFVVVQNAMSFVGPFTFNGIRFLFAGIILLFVQMIFSKKTSKQDIKQSSLAGLTVGFFLCVGYVLQTFGLLYTTSSKAGFLTGLSIVMVPILSFIFLKQKATIFIVIGIAVATAGLYLLTAGDSFQLNIGDILVLGCAVAFAAHILVNGFFSKKISPLLLSTSQVLAVGMFSSICAFLFEDWEKLFSVALWTNASFLFALFLTSLFATSIAFFIQTSAQKHTSPTRVAIIFAMEPVFAALTGVLVANEQLSISAIIGCLCIFLGMVFVELPSKTKKEAQAA
protein production: failed

NCRLFIGGIPKMKKREEILEEIAKVTEGVLDVIVYASAADKMKNRGFAFVEYESHRAAAMARRKLMPGRIQLWGHQIAVDWAEPEIDVDEDVMETV
protein production: not failed

MENFVFHNPTKIVFGRGTIPKIGEEIKNAGIRKVLFLYGGGSIKKNGVYDQVVDSLKKHGIEWVEVSGVKPNPVLSKVHEAVEVAKKEKVEAVLGVGGGSVVDSAKAVAAGALYEGDIWDAFIGKYQIEKALPIFDVLTISATGTEMNGNAVITNEKTKEKYGVSSKALYPKVSIIDPSVQFTLPKEQTVYGAVDAISHILEYYFDGSSPEISNEIAEGTIRTIMKMTERLIEKPDDYEARANLAWSATIALNGTMAVGRRGGEWACHRIEHSLSALYDIAHGAGLAIVFPAWMKYVYRKNPAQFERFAKKIFGFEGEGEELILKGIEAFKNWLKKVGAPVSLKDAGIPEEDIDKIVDNVMLLVEKNLKPKGASLGRIMVLEREDVREILKLAAK
protein production: not failed

GKRSTMLLRAITPQDWDAILQIQEECYSQLDPEPLHVLQSKWHVSPQSCFVFEVNESVVGYCLAHPWTTNMPPALYEPITHLPKADTLYLHDIAISAKAQGLGAGSKALMRLKQLADRFNLGSLSLVAVQGADSYWRKMGFTPKAIDKCLGSYTDDAMYMIYKL
protein production: failed

GQEYRALPGADTGRPDLDRSYALVYPAPRPKALLLLVPGLLGGSTNFALLAERLRAMAPGLEVWAWERRANGLEDRRGFLREDPVAYYRALALPDLTPLRAWGLEVHLKDLDLAVEAARARAPVVLAGHSLGAALAGLYALLHGEKLSGLVLLDGAPGVVPLAEEAFYEGADLPFGRLVGYRAFLRGEGSPAVELLGLGPKALALAEAEAFLAAKRPEEDLPFGPYRATREALALLRVDDDYSLFPVFSVSAGRAWAREGFSLLGLLQGRLVRTVRGPRAGPIAWRDTGEATDPRAFLRAFALPETGFSEWYFPYRLLLEVGGYPYVLRGLKPRALPYPVLALGAGRGLYPRAEDFRLGELFPGTEARAQVLPGLTHLDLLTEREGRTAGLLLRYLQDL
protein production: failed

MKVIETNFTDAKLLEPRLFGDDRGFFTESYNKKVLETLGVTHSFVQDNVSYSAEAGTIRGLHFQKNPKAQTKLIQVMQGAIYDVIVDLRKDSPTFKQWRGYILSADNHRQLLVPKGFAHGFCTLVPHTIVMYKVDEYYSADHDSGVLWNDKELAIPWPVTSPILSDKDRILPLLQECEDSF
protein production: not failed

FQDFEYPDYDDYRAEAFLHQQKRMECYSKAKEAYRIGKKNVATFYAQQGTLHEQKMKEANHLAAIEIFEKVNASLLPQNVLDLHGLHVDEALEHLMRVLEKKTEEFKQNGGKPYLSVITGRGNHSQGGVARIKPAVIKYLISHSFRFSEIKPGCLKVMLK
protein production: failed

MKEDWKSTIQKRIVERNLNQSKKYESIMKSYNSLVEEKNNLLAIIASLTSENMYLLNNRKLNHSFESTMMTETNISRNEDIFLSNETKKGHNNNNNQNDYNNDNSLNYSRTNIITMKSPDSLSQNTITKKEFLEVIKEKGKNEELILLLKNSVNEKEKMLHILNKENNNLNNVICKREEELYEKKKDIFKLEELLNKKETQIKLYENNNKSLKTKIQLHDRKNQKYFRQYNILRFTYFKLLKQVGEMKVYNNNINQNYFSLRKEMLQKKEENEKLLNYLIHCKTSYKKELKKLYQEITNKQKKYILFKNNQFYVNLYLRKF
protein production: failed

MAAAALREQLNALLSSMFASGLVDEQFQQLQMLQEDGGTPGFVAEVVTLFCDDADRIISELAALLDQPIVDFDKVDAYVHQLKGSSASVGAQKVKFTCMQFRQLCQDKNRDGCIMALAVVRNEFYDLRNKFQTMLQLEQQIQAQQ
protein production: not failed

MAPQKPVSAAQTAQHSAVWIDVRSEQEFSEGHLHNAVNIPVDQIVRRIYEAAPDKDTPVNLYCRSGRRAEAALQELKKAGYTNVANHGGYEDLLKKGLEHHHHHH
protein production: not failed

MPPVWTLPRLYQHFQGAIDLELWTIPYYLTVLYSIKDPTTVPYRLIQAAVYQEMLHAQLVSNIANAYGYSPTLSAPEYVGTAVPHIDFDLDTPNPTSIFTPYSAELGPLDLTRVNTMCLIEYPEWRTQREPDLADDVTDYGSIGEFYDALRVGMEQLRGHVRGNQKQMDEFGPFYQNSPPLTVTESGDAGFLQALTLVDIIVDQGEGQTQPVETIPTEFQNTADGFQDAWPHFQRFDFIRRMPNWPGVYTGVTDPPAGSPGAEAQARLIADFAGFLDILNGMFSGGGAPPAFGVQMAKLGGDILSCWKLGAVPRYS
protein production: not failed

MVMSIEASCHCGETVFEVTEAPSSVTRCTCSLCAKRGSLWAYYKPAQFRLLSPPENVTTYLWGSRTVKHHFCASCGCGTYSESPDWSTGKPDFDNPKVAVNARLFDDFDLDAVPVNMIDGKNLWLEHHHHHH
protein production: not failed
